Experimental data taken from paper PMC10450178.

Assays:
Experiment in all cases: BLI
BG4 anti-G4 antibody = conditions: Buffer R: 20 mM HEPES pH 7.4-7.5, 20 mM NaOAc, 140 mM KOAc, 3 mM Mg(OAc)2, 0.1% Tween20, SPR at 20 C, BLI temperature not …
[1] = system: Gmab anti-G4 antibody fragment (human (Garvan-2 scFv library)); conditions: Buffer R: 20 mM HEPES pH 7.4-7.5, 20 mM NaOAc, 140 mM KOAc, 3 mM Mg(OAc)2, 0.1% Tween20, SPR at 20 C, BLI temperature not …
[2] = biological target: hen egg-white lysozyme (HEL) (Gallus gallus) (UniProt P00698); conditions: Buffer R: 20 mM HEPES pH 7.5, 20 mM NaOAc, 140 mM KOAc, 3 mM Mg(OAc)2, 0.1% Tween20, BLI temperature not stated, low values mean tight binding
Chain of hen egg-white lysozyme (HEL) (Gallus gallus) (P00698 19-147): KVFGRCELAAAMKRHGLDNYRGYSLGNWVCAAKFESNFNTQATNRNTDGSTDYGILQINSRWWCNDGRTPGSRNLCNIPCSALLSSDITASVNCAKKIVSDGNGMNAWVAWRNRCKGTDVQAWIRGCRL

Sequence: CGGGCGGGCGCGAGGGAGGGG [KIT2 G4]
- Kd (BG4 anti-G4 antibody; ka 7.9e4 M-1s-1, kd 1.5e-4 s-1): 1.9 nM
- Kd ([1]; ka 7.5e4 M-1s-1, kd 2.7e-4 s-1): 3.6 nM

Sequence: GTGCTGTTCGTTTAAATGTGTGTCGTCGTTCGCTATCC [LYS-S8-19-core14 (HNA)]
- Kd (BG4 anti-G4 antibody; all-HNA (1',5'-anhydrohexitol)): 5.3 nM
- Kd ([1]; all-HNA (1',5'-anhydrohexitol)): 32.3 nM
- Kd ([2]; all-HNA (1',5'-anhydrohexitol)): 48.8 nM

Sequence: GTTCGTTTAAATATGTGTCGTCGTTCGCTATCC [core13 G13A]
- Kd ([2]; all-HNA): 97.9 nM

Sequence: GTTCGTTTAAATGTGTGTCGTCGTTCACTATCC [core13 G27A]
- Kd ([2]; all-HNA): 9.28 nM

Sequence: GTTCGTTTAAATGTGTGTCGTCGTTCCCTATCC [core13 G27C]
- Kd ([2]; all-HNA): 116 nM

Sequence: GTTCGTTTAAATGTGTGTCGTCGTTCGCTATCC [LYS-S8-19-core13 (HNA)]
- Kd ([1]; ka 8.47e4, kd 1.00e-2, all-HNA): 118 nM
- Kd ([2]; all-HNA): 68.8 nM
